Assay [1] has as its target CD2 (human, UniProt P06729). Briefly: cell-based or functional assay.
Assay [2] addresses T1, PD-1 (human, UniProt Q15116). The assay can be described thus: cell-based or functional assay.
In another assay the target is CD28 (human, UniProt P10747). Briefly: cell-based or functional assay.
The target in assay [3] is T1, PD-1. Briefly: cell-based or functional assay. The source holds these as a separate data set.
For the next assay, the target named is human PD-1 (human, UniProt Q15116). The assay can be described thus: flow cytometry, Jurkat/IL-2/PD-1 cells. In general terms: A flow cytometer gives signals particle by particle.
The target of assay [4] is CD2 (Homo sapiens (Human), UniProt P06729). The assay can be described thus: flow cytometry, CHO-CD2 cells.

The results in this text go back to patent US20250163127A1 (published 2025).

As usually defined, the EC50 is the concentration at which the effect is half-maximal.

B1: CD58 3650-PD-L1 303-Fc (Fc fusion)
chain: SQQIYGVVYGNVTFHVPSNVPLKEVLWKKQKDKVAELENSEFRAFSSFKNRVYLDTVSGSLTIYNLTSSDEDEYEMESPNITDTMKFFLYVLESGGGGSGGGGSGGGGSFTVTVPKDLYVVEYGSNMTIECKFPVEKQLDLAALIVYWEMEGKDIIQFVHGEEDQKAQHSSYRQRARLLKDQLSLGNAALQITDVKLQDAGVYRCMISYGGGADYKRITVKVNAGSGGGGSEPKSSDKTHTCPPCPAPEAEGAPSVFLFPPKPKDTLMISRTPEVTCVVVDVSHEDPEVKFNWYVDGVEVHNAKTKPREEQYNSTYRVVSVLTVLHQDWLNGKEYKCKVSNKALPAPIEKTISKAKGQPREPQVYTLPPSRDELTKNQVSLTCLVKGFYPSDIAVEWESNGQPENNYKTTPPVLDSDGSFFLYSKLTVDKSRWQQGNVFSCSVMHEALHNHYTQKSLSLSPG
Consider B1, for which the “100 nM IFN-gamma (pg/mL), SEB assay” value with CD2 [1] and in the assay with PD-1 [2] was 5440 pg/mL each time.

B2: PD-L1 303-ICOSL 2264-ICOSL 2264-PD-L1 303 (other)
chain: FTVTVPKDLYVVEYGSNMTIECKFPVEKQLDLAALIVYWEMEGKDIIQFVHGEEDQKAQHSSYRQRARLLKDQLSLGNAALQITDVKLQDAGVYRCMISYGGGADYKRITVKVNAGGGGSGGGGSGGGGSDTQEKEVRAMVGSDVELSCACPEGSRFDLNDVYVYWQTSESKTVVTYHIPQHSSLEYVDSRYRNRALMSPAGMLRGDFSLRLFNVTPQDEQKFHCLVLSRSLGFQEVLSVEVTLHVAANFSVGGGGSGGGGSGGGGSDTQEKEVRAMVGSDVELSCACPEGSRFDLNDVYVYWQTSESKTVVTYHIPQHSSLEYVDSRYRNRALMSPAGMLRGDFSLRLFNVTPQDEQKFHCLVLSRSLGFQEVLSVEVTLHVAANFSVGSGGSGGGGSGGGGSFTVTVPKDLYVVEYGSNMTIECKFPVEKQLDLAALIVYWEMEGKDIIQFVHGEEDQKAQHSSYRQRARLLKDQLSLGNAALQITDVKLQDAGVYRCMISYGGGADYKRITVKVNADYKDDDDKHHHHHH
As to B2, the “% CD25 Hi FoxP3 +” value with CD28 and with PD-1 [3] was 0.89 % at 100 nM throughout.

B3: CD58 3650-PD-L1 303-PD-L1 303-CD58 3650 (other)
chain: SQQIYGVVYGNVTFHVPSNVPLKEVLWKKQKDKVAELENSEFRAFSSFKNRVYLDTVSGSLTIYNLTSSDEDEYEMESPNITDTMKFFLYVLESGGGGSGGGGSGGGGSFTVTVPKDLYVVEYGSNMTIECKFPVEKQLDLAALIVYWEMEGKDIIQFVHGEEDQKAQHSSYRQRARLLKDQLSLGNAALQITDVKLQDAGVYRCMISYGGGADYKRITVKVNAGGGGSGGGGSGGGGSFTVTVPKDLYVVEYGSNMTIECKFPVEKQLDLAALIVYWEMEGKDIIQFVHGEEDQKAQHSSYRQRARLLKDQLSLGNAALQITDVKLQDAGVYRCMISYGGGADYKRITVKVNAGSGGSGGGGSGGGGSSQQIYGVVYGNVTFHVPSNVPLKEVLWKKQKDKVAELENSEFRAFSSFKNRVYLDTVSGSLTIYNLTSSDEDEYEMESPNITDTMKFFLYVLESGSGGGGSDYKDDDDKHHHHHH
B3: the figures for the concentration for a half-maximal effect (EC50) with human PD-1 and in the assay with CD2 [4] were 6.6 nM and 14.4 nM, respectively.

B4: PD-L1 303-ICOSL 2264-Fc (Fc fusion)
chain: FTVTVPKDLYVVEYGSNMTIECKFPVEKQLDLAALIVYWEMEGKDIIQFVHGEEDQKAQHSSYRQRARLLKDQLSLGNAALQITDVKLQDAGVYRCMISYGGGADYKRITVKVNAGSGGSGGGGSGGGGSDTQEKEVRAMVGSDVELSCACPEGSRFDLNDVYVYWQTSESKTVVTYHIPQHSSLEYVDSRYRNRALMSPAGMLRGDFSLRLFNVTPQDEQKFHCLVLSRSLGFQEVLSVEVTLHVAANFSVGGGGSGSGGGGSEPKSSDKTHTCPPCPAPEAEGAPSVFLFPPKPKDTLMISRTPEVTCVVVDVSHEDPEVKFNWYVDGVEVHNAKTKPREEQYNSTYRVVSVLTVLHQDWLNGKEYKCKVSNKALPAPIEKTISKAKGQPREPQVYTLPPSRDELTKNQVSLTCLVKGFYPSDIAVEWESNGQPENNYKTTPPVLDSDGSFFLYSKLTVDKSRWQQGNVFSCSVMHEALHNHYTQKSLSLSPG
For B4, the “% CD25 Hi FoxP3 +” value with CD28 and in the assay with PD-1 [3] was 6.6 % at 100 nM throughout.

B5: PD-L1 303-PD-L1 303-ICOSL 2264-ICOSL 2264 (other)
chain: FTVTVPKDLYVVEYGSNMTIECKFPVEKQLDLAALIVYWEMEGKDIIQFVHGEEDQKAQHSSYRQRARLLKDQLSLGNAALQITDVKLQDAGVYRCMISYGGGADYKRITVKVNAGGGGSGGGGSGGGGSFTVTVPKDLYVVEYGSNMTIECKFPVEKQLDLAALIVYWEMEGKDIIQFVHGEEDQKAQHSSYRQRARLLKDQLSLGNAALQITDVKLQDAGVYRCMISYGGGADYKRITVKVNAGGGGSGGGGSGGGGSDTQEKEVRAMVGSDVELSCACPEGSRFDLNDVYVYWQTSESKTVVTYHIPQHSSLEYVDSRYRNRALMSPAGMLRGDFSLRLFNVTPQDEQKFHCLVLSRSLGFQEVLSVEVTLHVAANFSVGSGGSGGGGSGGGGSDTQEKEVRAMVGSDVELSCACPEGSRFDLNDVYVYWQTSESKTVVTYHIPQHSSLEYVDSRYRNRALMSPAGMLRGDFSLRLFNVTPQDEQKFHCLVLSRSLGFQEVLSVEVTLHVAANFSVDYKDDDDKHHHHHH
Regarding B5, the “% CD25 Hi FoxP3 +” value in the assay with CD28 and with PD-1 [3] was 4.28 % at 100 nM in each case.

B6: PD-L1 303-ICOSL 2264-Fc + Fc (Fc fusion)
chain 1: FTVTVPKDLYVVEYGSNMTIECKFPVEKQLDLAALIVYWEMEGKDIIQFVHGEEDQKAQHSSYRQRARLLKDQLSLGNAALQITDVKLQDAGVYRCMISYGGGADYKRITVKVNAGSGGGSGGGGSGGGGSDTQEKEVRAMVGSDVELSCACPEGSRFDLNDVYVYWQTSESKTVVTYHIPQHSSLEYVDSRYRNRALMSPAGMLRGDFSLRLFNVTPQDEQKFHCLVLSRSLGFQEVLSVEVTLHVAANFSVGGGGSGSGGGGSEPKSSDKTHTCPPCPAPEAEGAPSVFLFPPKPKDTLMISRTPEVTCVVVDVSHEDPEVKFNWYVDGVEVHNAKTKPREEQYNSTYRVVSVLTVLHQDWLNGKEYKCKVSNKALPAPIEKTISKAKGQPREPQVYTLPPCREEMTKNQVSLWCLVKGFYPSDIAVEWESNGQPENNYKTTPPVLDSDGSFFLYSKLTVDKSRWQQGNVFSCSVMHEALHNHYTQKSLSLSPGK
chain 2: HMSSVSAQAAAEPKSSDKTHTCPPCPAPEAEGAPSVFLFPPKPKDTLMISRTPEVTCVVVDVSHEDPEVKFNWYVDGVEVHNAKTKPREEQYNSTYRVVSVLTVLHQDWLNGKEYKCKVSNKALPAPIEKTISKAKGQPREPQVCTLPPSREEMTKNQVSLSCAVKGFYPSDIAVEWESNGQPENNYKTTPPVLDSDGSFFLYSKLTVDKSRWQQGNVFSCSVMHEALHNHYTQKSLSLSPGK
On to B6, for which the “% CD25 Hi FoxP3 +” value in the assay with CD28 and with PD-1 [3] was 29.8 % at 100 nM in each case.

B7: PD-L1 303-ICOSL 2264-PD-L1 303 (other)
chain: FTVTVPKDLYVVEYGSNMTIECKFPVEKQLDLAALIVYWEMEGKDIIQFVHGEEDQKAQHSSYRQRARLLKDQLSLGNAALQITDVKLQDAGVYRCMISYGGGADYKRITVKVNAGGGGSGGGGSGGGGSDTQEKEVRAMVGSDVELSCACPEGSRFDLNDVYVYWQTSESKTVVTYHIPQHSSLEYVDSRYRNRALMSPAGMLRGDFSLRLFNVTPQDEQKFHCLVLSRSLGFQEVLSVEVTLHVAANFSVGGGGSGGGGSGGGGSFTVTVPKDLYVVEYGSNMTIECKFPVEKQLDLAALIVYWEMEGKDIIQFVHGEEDQKAQHSSYRQRARLLKDQLSLGNAALQITDVKLQDAGVYRCMISYGGGADYKRITVKVNADYKDDDDKHHHHHH
For B7, the “% CD25 Hi FoxP3 +” value with CD28 and in the assay with PD-1 [3] was 23.2 % at 100 nM each time.

B8: PD-L1 303-ICOSL 2264 (SEQ ID NO 3496) (other)
chain: FTVTVPKDLYVVEYGSNMTIECKFPVEKQLDLAALIVYWEMEGKDIIQFVHGEEDQKAQHSSYRQRARLLKDQLSLGNAALQITDVKLQDAGVYRCMISYGGGADYKRITVKVNAGSGGSGGGGSGGGGSDTQEKEVRAMVGSDVELSCACPEGSRFDLNDVYVYWQTSESKTVVTYHIPQHSSLEYVDSRYRNRALMSPAGMLRGDFSLRLFNVTPQDEQKFHCLVLSRSLGFQEVLSVEVTLHVAANFSVDYKDDDDKHHHHHH
In the case of B8, the “% CD25 Hi FoxP3 +” value in the assay with CD28 and with PD-1 [3] was 21.7 % at 100 nM each time.

B9: CD58 3650-CD58 3650-PD-L1 303-PD-L1 303 (other)
chain: SQQIYGVVYGNVTFHVPSNVPLKEVLWKKQKDKVAELENSEFRAFSSFKNRVYLDTVSGSLTIYNLTSSDEDEYEMESPNITDTMKFFLYVLESGGGGSGGGGSGGGGSSQQIYGVVYGNVTFHVPSNVPLKEVLWKKQKDKVAELENSEFRAFSSFKNRVYLDTVSGSLTIYNLTSSDEDEYEMESPNITDTMKFFLYVLESGGGGSGGGGSGGGGSFTVTVPKDLYVVEYGSNMTIECKFPVEKQLDLAALIVYWEMEGKDIIQFVHGEEDQKAQHSSYRQRARLLKDQLSLGNAALQITDVKLQDAGVYRCMISYGGGADYKRITVKVNAGSGGSGGGGSGGGGSFTVTVPKDLYVVEYGSNMTIECKFPVEKQLDLAALIVYWEMEGKDIIQFVHGEEDQKAQHSSYRQRARLLKDQLSLGNAALQITDVKLQDAGVYRCMISYGGGADYKRITVKVNAGSGGGGSDYKDDDDKHHHHHH
B9: the EC50 in the assay with human PD-1 was 19.5 nM; with CD2 [4] it was 24.4 nM.

B10: PD-L1 303-CD58 3650-Fc (Fc fusion)
chain: FTVTVPKDLYVVEYGSNMTIECKFPVEKQLDLAALIVYWEMEGKDIIQFVHGEEDQKAQHSSYRQRARLLKDQLSLGNAALQITDVKLQDAGVYRCMISYGGGADYKRITVKVNAGGGGSGGGGSGGGGSSQQIYGVVYGNVTFHVPSNVPLKEVLWKKQKDKVAELENSEFRAFSSFKNRVYLDTVSGSLTIYNLTSSDEDEYEMESPNITDTMKFFLYVLESGSGGGGSEPKSSDKTHTCPPCPAPEAEGAPSVFLFPPKPKDTLMISRTPEVTCVVVDVSHEDPEVKFNWYVDGVEVHNAKTKPREEQYNSTYRVVSVLTVLHQDWLNGKEYKCKVSNKALPAPIEKTISKAKGQPREPQVYTLPPSRDELTKNQVSLTCLVKGFYPSDIAVEWESNGQPENNYKTTPPVLDSDGSFFLYSKLTVDKSRWQQGNVFSCSVMHEALHNHYTQKSLSLSPG
On to B10, for which the “100 nM IFN-gamma (pg/mL), SEB assay” value in the assay with CD2 [1] and with PD-1 [2] was 9820 pg/mL each time.

B11: PD-L1 303-ICOSL 2264-COMP (other)
chain: FTVTVPKDLYVVEYGSNMTIECKFPVEKQLDLAALIVYWEMEGKDIIQFVHGEEDQKAQHSSYRQRARLLKDQLSLGNAALQITDVKLQDAGVYRCMISYGGGADYKRITVKVNAGGGGSGGGGSGGGGSDTQEKEVRAMVGSDVELSCACPEGSRFDLNDVYVYWQTSESKTVVTYHIPQHSSLEYVDSRYRNRALMSPAGMLRGDFSLRLFNVTPQDEQKFHCLVLSRSLGFQEVLSVEVTLHVAANFSVGGGGSGGGGSGGGGSDLGPQMLRELQETNAALQDVRELLRQQVREITFLKNTVMECDACGDYKDDDDKHHHHHH
For B11, the “% CD25 Hi FoxP3 +” value in the assay with CD28 and with PD-1 [3] was 21 % at 100 nM in each case.
